Data published in publication PMC3683927.
Numbering of substitutions follows the chain as printed. Names may count otherwise.

B1: Apt1-S (structured_RNA)
RNA: GGGAUGGACGACCCACCACGGCGAGGUAUCCCAUCCC
B2: Apt1-S A24C (structured_RNA)
RNA: B1 RNA with A24C
B3: Apt1-S GAAA loop (structured_RNA)
RNA: B1 RNA with C17G, C19A, G20A
B4: Apt1-S UUUU loop (structured_RNA)
RNA: B1 RNA with C17U, A18U, C19U, G20U
B5: Apt1-S C12G-G26C (structured_RNA)
RNA: B1 RNA with C12G, G26C
B6: Apt1-S A24U (structured_RNA)
RNA: B1 RNA with A24U
B7: Apt1-S double-stranded (1-18 / 19-37) (dsRNA)
RNA 1: GGGAUGGACGACCCACCA
RNA 2: CGGCGAGGUAUCCCAUCCC
B8: RDE (dsDNA)
DNA 1: GTCGTTTGCGGTTTGGGGAAAAAAAAAAAAAAAAA
DNA 2: TCCCCAAACCGCAAACGAC

What was measured:
Assay in all cases: SPR
AML1 Runt domain [1] = biological target: T1, AML1 Runt domain (UniProt Q01196 1-188)
T1 sequence (Q01196 1-188): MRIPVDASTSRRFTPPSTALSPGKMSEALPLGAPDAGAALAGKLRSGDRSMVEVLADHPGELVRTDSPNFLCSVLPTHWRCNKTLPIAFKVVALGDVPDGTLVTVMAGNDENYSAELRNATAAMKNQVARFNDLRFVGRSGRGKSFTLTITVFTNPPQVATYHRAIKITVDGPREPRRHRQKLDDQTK

AML1 Runt domain V170A = AML1 Runt domain V170A (UniProt Q01196 1-188, V170A)
Chain of AML1 Runt domain V170A (Q01196 1-188 V170A): as the sequence (Q01196 1-188) above, with V170A counted along it

AML1 Runt domain [2] = biological target: T1, AML1 Runt domain; remark: listed apart in the source

| Binder | binding result (AML1 Runt domain [1]) | other results |
| --- | --- | --- |
| B1 |  | Kd (AML1 Runt domain [1]): 0.99 ± 0.02 nM; binding result (AML1 Runt domain V170A): binds |
| B2 | binds |  |
| B3 | binds |  |
| B4 | binds |  |
| B5 | binds |  |
| B6 | binds |  |
| B7 |  | binding signal (AML1 Runt domain [2]): ~20 fold reduction in affinity vs Apt1-S |
| B8 |  | Kd (AML1 Runt domain [1]): 9.6 ± 0.2 nM; binding result (AML1 Runt domain V170A): binds |
